Test results reported in patent publication EP3782644A1.

Target: ErbB2-Domain4 protein (human) (UniProt P04626)
Assay: indirect ELISA, ErbB2-Domain4 protein coated at 100 ng/well, antibody in serial dilution, absorbance at 450 nm

B1: anti-ErbB2 monoclonal antibody 19G9 (antibody, V domains shown)
VH: LEQSGPGILQPSQTLSLICSFSGFSLSTSGMGVSWIRQPSGKGLEWLAHIYWDDDKRYNPSLKSRLTISKDTSSKQVFLKITSVDTADTATYYCALFAYYNYDGTVDYWGLGTSVTVSS
VL: DIVMTQTPSSLAVSVGEKVTMSCKSSQSLLHSRTRKNYLAWYQQKLGQSPKLLIYWASTRESGVPDRFTGSGSGTDFTLTISSVEAEDLAVYYCKQSYNLYTFGGGTKLEIK
**Q.** For B1, which EC50 is on record?
**A.** 100 nM
